# Experiments:
# [1] = biological target: OmpA with T7⋅tag epitope inserted into loop 1 (Escherichia coli) (UniProt P0A910); test: flow cytometry of whole cells, biotinylated mAb then streptavidin-phycoerythrin
# [2] = biological target: OmpA with T7⋅tag epitope inserted into loop 4 (Escherichia coli) (UniProt P0A910); test: as above
substance,measurement,setting,value
anti-T7⋅tag monoclonal antibody,fold fluorescence above background control cells,[1],300 fold
same,fold fluorescence above background cellular autofluorescence,[2],2 fold

# Reference: patent publication US20190264194A1
